We go through two molecules from PMC12700550, “DLL4^+ neutrophils promote Notch1-mediated endothelial PANoptosis to exacerbate acute lung injury in sepsis” (The Journal of Clinical Investigation, 2025).

“And” between values parts separate entries of the source, which are not always exact repeats. Identical values can stand only once.

The test system of assay [1] is C57BL/6 mice, CLP sepsis. The assay can be described thus: Evans blue dye lung extravasation, CLP mice. Format: in vivo, mouse. Conditions: 20 h; for Evans blue dye, EBD/dry lung tissue (Figure 6L): 10 mg/kg NDI, EBD 20 mg/kg, individual mice. How it is done:
Sepsis was induced in mice by cecal ligation and puncture (CLP) as described previously ([45], [46]). Mice were anesthetized with isoflurane to a surgical plane and placed in a supine position. CLP was performed through a midline laparotomy. The abdomen was shaved and disinfected. Through a 2 cm midline incision, the cecum was exposed and then ligated with a 4-0 silk suture 1 cm proximal from the distal cecal extremity. […] A small amount of cecal content was extruded through both holes, and the ligated cecum was returned to the peritoneal cavity. The wound was closed in layers. […] A small amount of cecal content was extruded. […] Vehicle groups received an equivalent volume of PBS, while treatment groups received NDI 10 mg/kg in […] PBS via retro-orbital injection after CLP. This dose was chosen primarily on the basis of our laboratory’s prior experience, we have consistently used this dose in mouse CLP models with reproducible efficacy and without observable toxicity ([39], [44]). Sham-operated animals underwent a laparotomy without CLP. After closure, the mice received a subcutaneous injection of 0.5 mL of normal saline to overcome surgery-induced dehydration. […] All mice were subcutaneously injected with a single dose of 0.1 mg/kg buprenorphine after CLP. Lung vascular leakage was quantified using the Evans blue dye–labeled (EBD-labeled) albumin extravasation assay ([48]). […] Sigma-Aldrich) via retro-orbital injection. […] The whole lung was dehydrated for 48 hours at 60°C, immersed in formamide (1 mL/g wet weight; Sigma-Aldrich) at 37°C for 48 hours, and centrifuged at 5,000g for 30 minutes. The amount of extracted EBD in the supernatant was quantified by spectrophotometry. The concentration of extravasated EBD-albumin in lung homogenates was expressed as nanograms EBD per milligram of dry lung tissue. Lung water content was calculated as (wet weight – dry weight)/wet weight %.

In assay [2] the test system is DLL4 expression on human neutrophils. Briefly: Frequency of DLL4^+ neutrophils (CD66^+DLL4^+), human peripheral blood neutrophils. Format: cell-based. Conditions: 12 h. The source says: Blood samples were obtained from the deidentified healthy human subjects. Written informed consent was obtained from all participants, and human subject protocols were approved by the Institutional Review Board of the North Shore University Hospital. Five milliliters of blood was collected by venipuncture and placed in EDTA blood collection tubes. We isolated the neutrophils from fresh blood samples by immunomagnetic cell separation using an EasySep Direct Human Neutrophil Isolation Kit (catalog 19666, Stem Cell Technologies). A total of 20 × 10^6 neutrophils were obtained from 5 mL of blood. Neutrophils (1 × 10^6 cells/mL) were stimulated with 1 μg/mL eCIRP for 12 hours. The cells were then stained with anti-CD66b (clone G10F5, catalog 984102, BioLegend) and DLL4 antibodies (clone MHD4-46, catalog 346506, BioLegend), and the frequencies (percentage) of DLL4^+ neutrophils were detected by flow cytometry.

Assay [3] has as its system DLL4 expression on TLR4^–/– BMDNs. The assay can be described thus: Frequency of DLL4^+ neutrophils, TLR4^–/– mouse BMDNs, flow cytometry. Format: cell-based. The following applies: 12 h. How it is done:
Male 8-week-old C57BL/6 mice were purchased from Charles River Laboratories. TLR4^–/– mice were obtained from Kevin Tracey (Feinstein Institutes for Medical Research). Mice were housed at approximately 23°C with a 12-hour light/12-hour dark cycle and given standard laboratory food and water ad libitum. All experiments were performed following the NIH guidelines for experimental animals. The animal protocol was approved by the Feinstein Institutes’ Institutional Animal Care and Use Committee. Animals were randomly assigned to the sham, vehicle, or adoptive transfer groups.
Mice were anesthetized by 2% isoflurane inhalation, and the femora and tibiae were dissected. […] The purity of the sorted neutrophils was assessed by staining of the cells with APC-Ly6G antibody (clone 1A8, BioLegend) using a BD LSRFortessa flow cytometer (BD Biosciences).
In the time course experiments, BMDNs (1 × 10^6) were stimulated with eCIRP (1 μg/mL) for 2, 4, 6, and 12 hours. […] Single-cell suspensions were then stained with APC-conjugated anti–mouse Ly6G (clone 1A8, catalog 127614, BioLegend) and PE-conjugated anti-DLL4 (clone HMD4-1, catalog 130807, BioLegend), and analyzed by flow cytometry (BD LSRFortessa, BD Biosciences) to detect DLL4^+ neutrophils (Ly6G^+DLL4^+). […] The isolated lung cells were counted using a microscope (Eclipse TS100, Nikon). […]

Turning to ECAGSPCHNGGTCEDGI [NDI], in assay [1] (DLL4^+ neutrophil-injected CLP mice, 10 mg/kg), the “effect on Evans blue dye content” value is “significantly attenuated these effects, reducing both lung water content and Evans blue dye content”. Besides, the “Evans blue dye, EBD/dry lung tissue (Figure 6L)” value was 94.3739 nanograms EBD per milligram of dry lung tissue and 81.6499 nanograms EBD per milligram of dry lung tissue and 102.841 nanograms EBD per milligram of dry lung tissue and 95.8364 nanograms EBD per milligram of dry lung tissue and 67.7799 nanograms EBD per milligram of dry lung tissue and 56.8397 nanograms EBD per milligram of dry lung tissue and 66.2061 nanograms EBD per milligram of dry lung tissue and 49.7845 nanograms EBD per milligram of dry lung tissue and 71.2396 nanograms EBD per milligram of dry lung tissue in assay [1] (DLL4^+ neutrophils + CLP); 62.3234 nanograms EBD per milligram of dry lung tissue and 74.8524 nanograms EBD per milligram of dry lung tissue and 79.6398 nanograms EBD per milligram of dry lung tissue and 73.406 nanograms EBD per milligram of dry lung tissue and 63.9328 nanograms EBD per milligram of dry lung tissue and 50.0167 nanograms EBD per milligram of dry lung tissue and 66.1099 nanograms EBD per milligram of dry lung tissue and 61.0318 nanograms EBD per milligram of dry lung tissue and 57.5122 nanograms EBD per milligram of dry lung tissue in assay [1] (DLL4^– neutrophils + CLP).

B1: eCIRP: extracellular cold-inducible RNA-binding protein; recombinant murine, produced in our laboratory (protein, UniProt P60824 1-172, looked up)
Cold-inducible RNA-binding …: MASDEGKLFVGGLSFDTNEQALEQVFSKYGQISEVVVVKDRETQRSRGFGFVTFENIDDAKDAMMAMNGKSVDGRQIRVDQAGKSSDNRSRGYRGGSAGGRGFFRGGRSRGRGFSRGGGDRGYGGGRFESRSGGYGGSRDYYASRSQGGSYGYRSSGGSYRDSYDSYATHNE
As for B1, in assay [2] (human neutrophils 1 × 10^6/mL, eCIRP 1 μg/mL, individual replicates), the “frequency of DLL4^+ neutrophils (Figure 1K)” value was 16% and 10.3% and 4.81% and 7.94% and 7.27% and 10.4% and 15.89% and 20.5% and 19.83%. Besides, the “effect on frequency of DLL4^+ neutrophils” value in assay [2] (human peripheral blood neutrophils, 1 μg/mL) is given as “significantly increased the frequency of DLL4^+ neutrophils”. For the same molecule, the “frequency of DLL4^+ neutrophils (Figure 1E)” value in assay [3] (TLR4^–/– (KO) BMDNs, 1 μg/mL eCIRP, individual replicates) is 1.63% and 1.97% and 2.11% and 0.98% and 0.25% and 1.21%. Also, the “eCIRP-mediated induction of DLL4^+ neutrophils” value in assay [3] (TLR4^–/– neutrophils, 1 μg/mL) is recorded as “significantly abrogated in TLR4^–/– neutrophils”.
